These results are taken from paper PMC8986478 (Immunity, 2022).

B1: C1717 IgG (antibody, V domains shown)
VH: QVQLVQSGAEVKKPGSSVKVSCKTSGGTFNSFAINWVRQAPGQGPEWMGRVIPVLEIANYAQKFQGRITITADKSTSTAYMELSSLTSEDTAIYYCARHHIAVAQPYFDYWGQGTLVTVSS
VL: not shown
B2: C1554 IgG (antibody, V domains shown)
VH: QVQLVQSGAEVKKPGASVKVSCKVSGYTLPEISIHWVREAPGKGLEWMGGFDPEDGETIYSQRFQGRVTMTEDTSTDTAYMELSSLRSEDTAVYYCAASSPFSGGWFHPWGQGTLVTVSS
VL: QSALTQPASVSGSPGQSITISCTETSSDVGNYNLVSWYQQHPGKAPKLVIYEGTKRPSGVSNRFSASKSGNTASLTISELQAEDEANYYCCSYARSGVFGGGTKLTVL
B3: C1791 IgG (antibody, V domains shown)
VH: EVQLLESGGGLVQPGGSRRLSCAASGFTFSIAAMSWVRQAPGKGLEWVSVISTSGGTSYYADSVRGRFTISRDNSQNTLYLQMNSLSAEDTAIYYCAKDLGSYFPDYWGQGTLVTVSS
VL: DIQMTQSPSSLSASVGDRVTITCRASQGIRNDIGWYQQKPGKAPKRLIHAASSLQSGVPSRFSGSGSGTEFTLTISSLQPEDFATYYCLQYNSYPRVTFGPGTKVDIK
B4: C1621 IgG (antibody, V domains shown)
VH: EVQLVESGGGLVKPGGSLRLSCAASGFSFNNSNMNWVRQAPGKGLEWVSSISSSSNYIYYVDSVKGRFTISRDNAKNSLYLQMSSLRVEDTAVYYCASAQSSARWGGYYQYAMDVWGQGTTVTVSS
VL: EIVMTQSPATLSVSPGERATLSCRASQSVSSSLAWYQQKPGQAPRLLIYDASTRATGIPARFSGRGSGTEFTLTISSLQSEDFAVYYCQQYYNWPPWTFGQGTKVEI
B5: C1557 IgG (antibody, V domains shown)
VH: QVQLVQSGAEVRKPGASVKVSCKVSGYTLTELSMHWVRQSPGKGLEWMGSFDPDDGETFYAQKFQGRITMSEDTSTDTAYMELSSLRSEDTAVYFCATDSNMIVVRGNYYYSGLDVWGQGTTVTVSS
VL: EIVMTQSPATLSVSPGERATLSCRASQSVAGNLAWYQQKPGLAPRLLIQGPSTRATGIPARFSGSGSGTEFTLTISSLQSEDFAVYYCHQYNNWPWTFGQGTKVEIK
B6: C1520 IgG (antibody, V domains shown)
VH: EVQLVESGGGLVQPGGSLRLACVASGFTFSIYEMNWVRQAPGKGLEWVSYITTSGHARYNADSVKGRFTISRDNSKNSFYLQMNSLRAEDTAIYYCARPQYHYYDTSTYHSYGFDIWGQGTMVTVSS
VL: QLVLTQSPSASASLGASVNLTCTLSSGHNSYAIAWHQQQPEKGPRYLMSLNSDGSHTKGDGIPDRFSGSSSGAERFLTISSLQSEDEADYYCQTWDTGIRVFGGGTRLTVL
B7: C1704 IgG (antibody, V domains shown)
VH: QVQLVQSGAEVKKPGASVKVSCKVSGYTLTELSIHWVRQAPGKGLEWMGSFDPEDGETICAQKFQGRVTMTEDTSTDTAYMELSSLRSEDTAVYYCATEWRGCSDTSCQGTNWFDPWGQGTLVTVSS
VL: QPVLTQSPSASASLGASVKLTCTLSSGHSTYAIAWHQQQPEKGPRYLMKLNSDGSHNKGDGIPDRFSGSSSGAERYLTISSLQSEDEADYYCQTWGTGVRVFGGGTKLTVL

The experiment deals with SARS-CoV-2 Wuhan-Hu-1 NTD (SARS-CoV-2 Wuhan-Hu-1, UniProt P0DTC2). The experiment in a line: BLI. (In general: Biolayer interferometry detects binding as a change in optical thickness at a sensor tip.)
In the case of B1, the binding result is “binds”.
As for B2, the entry is “binds”; as for B3, “binds”; as for B4, “binds”.
For B5, the binding result was “binds”.
As for B6, the entry is “binds”; as for B7, “binds”.
